Laboratory results published in PMC11727998, “Purification and Electron Transfer from Soluble c-Type Cytochrome TorC to TorA for Trimethylamine N-Oxide Reduction” (International Journal of Molecular Sciences, 2024).

B3: soluble TorC (heme-containing, holo-TorC) (natural protein, E. coli, UniProt P33226 21-390, looked up)
chain: VAIGIVIGIALIVLPHVGIKVTSTTEFCVSCHSMQPVYEEYKQSVHFQNASGVRAECHDCHIPPDIPGMVKRKLEASNDIYQTFIAHSIDTPEKFEAKRAELAEREWARMKENNSATCRSCHNYDAMDHAKQHPEAARQMKVAAKDNQSCIDCHKGIAHQLPDMSSGFRKQFDELRASANDSGDTLYSIDIKPIYAAKGDKEASGSLLPASEVKVLKRDGDWLQIEITGWTESAGRQRVLTQFPGKRIFVASIRGDVQQQVKTLEKTTVADTNTEWSKLQATAWMKKGDMVNDIKPIWAYADSLYNGTCNQCHGAPEIAHFDANGWIGTLNGMIGFTSLDKREERTLLKYLQMNASDTAGKAHGDKKEEK
modifications: heme c at the five CXXCH motifs (iron saturation about 75% of five hemes)
notes: TorC, pentahemic c-type cytochrome of E. coli, lacking the N-terminal 20 amino acid membrane anchor (first 60 nucleotides of the gene deleted); also called soluble periplasmic TorC; source: E. coli HM125 with pTorC-SS and pEC86 (ccmABCDEFGH), hemin added, purified (Ni-NTA, gel filtration)

Legend:
[1] = target: TorA (Escherichia coli) (UniProt P33225); conditions: cited from earlier work
[2] = target: T1, soluble TorC (Escherichia coli, UniProt P33226); assay: UV-visible spectroscopy, reduction of TorC; format: biochemical; conditions: electron donor, anaerobic
T1 construct: expressed in E. coli HM125 with ccmABCDEFGH; 43 kDa monomer

[3] = substrate: C[N+](C)(C)[O-]; assay: GC-MS of derivatized TMA; format: biochemical, Escherichia coli; conditions: 5 µM menadiol as electron donor via soluble TorC, 100 mM Sörensen buffer pH 6.5, 37 °C, anaerobic
Text: GC-MS of derivatized TMA on TorA with soluble TorC (physiological electron transfer assay)

[4] = substrate: C[N+](C)(C)[O-]; assay: purified protein; format: biochemical, Escherichia coli; conditions: 400 µM benzyl viologen (dithionite-reduced), 100 mM Sörensen buffer pH 6.5, 37 °C, anaerobic, 3 nM TorA
[5] = target: TorAD2 (TorA purified in a 1:2 stoichiometry with TorD) (E. coli) (UniProt P33225); assay: MST; Monolith NT.115, TorAD2 labelled with NT-647-NHS at constant concentration (5 nM), soluble TorC titrated, 25 °C, premium capillaries
[6] = target: TorAD2 (TorA purified in a 1:2 stoichiometry with TorD) (E. coli) (UniProt P33225); assay: SPR; Biacore T200, CM5 chip, target immobilised via amine coupling, 25 °C, 30 µL/min, 20 mM phosphate, 150 mM NaCl, 0.005% Tween 20, pH 7.4; global fit, 1:1 binding; mean of three measurements
[7] = target: T2, apo-TorA (E. coli, UniProt P33225 40-848); assay: as above; conditions: both partners purified
T2 construct: TorA, TMAO reductase of E. coli, apo form; Apo form (without cofactor); source: purified following published procedures [31]
T2 sequence: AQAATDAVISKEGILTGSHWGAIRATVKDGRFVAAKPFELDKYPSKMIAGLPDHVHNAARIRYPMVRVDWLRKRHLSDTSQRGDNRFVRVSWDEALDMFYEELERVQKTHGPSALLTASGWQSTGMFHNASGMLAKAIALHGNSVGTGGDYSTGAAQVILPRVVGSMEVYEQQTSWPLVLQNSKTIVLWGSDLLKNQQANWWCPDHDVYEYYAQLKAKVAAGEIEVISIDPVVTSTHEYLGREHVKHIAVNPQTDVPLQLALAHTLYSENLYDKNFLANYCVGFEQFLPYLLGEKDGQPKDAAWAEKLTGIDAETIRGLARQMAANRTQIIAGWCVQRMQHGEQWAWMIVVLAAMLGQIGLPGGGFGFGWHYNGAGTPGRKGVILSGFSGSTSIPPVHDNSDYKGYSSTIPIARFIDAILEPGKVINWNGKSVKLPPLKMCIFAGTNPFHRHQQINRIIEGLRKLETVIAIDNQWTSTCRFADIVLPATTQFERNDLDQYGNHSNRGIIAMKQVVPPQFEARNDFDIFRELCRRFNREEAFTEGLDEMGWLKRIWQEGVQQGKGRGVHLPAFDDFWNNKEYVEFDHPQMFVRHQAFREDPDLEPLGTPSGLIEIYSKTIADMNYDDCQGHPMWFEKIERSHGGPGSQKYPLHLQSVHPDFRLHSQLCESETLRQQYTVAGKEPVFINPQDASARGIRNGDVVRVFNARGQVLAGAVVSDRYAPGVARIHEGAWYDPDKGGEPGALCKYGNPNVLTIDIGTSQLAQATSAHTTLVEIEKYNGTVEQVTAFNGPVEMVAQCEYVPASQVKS

[8] = target: T3, TorA (TMAO reductase) (E. coli, UniProt P33225 40-848); assay: cell-based or functional assay
T3 sequence: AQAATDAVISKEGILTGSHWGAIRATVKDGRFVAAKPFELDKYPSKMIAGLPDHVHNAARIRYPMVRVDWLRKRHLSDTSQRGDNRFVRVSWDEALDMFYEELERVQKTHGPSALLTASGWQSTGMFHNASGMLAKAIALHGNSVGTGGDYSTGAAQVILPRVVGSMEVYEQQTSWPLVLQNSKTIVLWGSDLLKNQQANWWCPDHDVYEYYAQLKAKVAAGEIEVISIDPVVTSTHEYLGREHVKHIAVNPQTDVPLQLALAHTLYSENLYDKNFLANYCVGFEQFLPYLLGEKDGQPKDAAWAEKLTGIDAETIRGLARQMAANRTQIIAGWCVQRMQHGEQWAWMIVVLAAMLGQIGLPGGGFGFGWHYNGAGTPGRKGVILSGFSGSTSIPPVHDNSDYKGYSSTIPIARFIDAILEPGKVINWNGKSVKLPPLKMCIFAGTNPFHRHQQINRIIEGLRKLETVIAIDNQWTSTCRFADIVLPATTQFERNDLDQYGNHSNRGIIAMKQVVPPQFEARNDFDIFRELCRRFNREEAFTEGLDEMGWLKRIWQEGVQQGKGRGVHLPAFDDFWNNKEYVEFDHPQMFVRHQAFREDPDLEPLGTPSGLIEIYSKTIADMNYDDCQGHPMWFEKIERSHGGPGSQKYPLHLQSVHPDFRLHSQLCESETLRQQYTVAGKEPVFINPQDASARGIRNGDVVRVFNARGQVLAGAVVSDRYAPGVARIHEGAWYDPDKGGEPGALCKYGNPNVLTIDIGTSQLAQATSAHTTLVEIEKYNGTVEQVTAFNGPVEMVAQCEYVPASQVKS

[9] = target: T4, apo-TorC (soluble TorC without hemes) (E. coli, UniProt P33226 21-390); assay: SPR; Biacore T200, CM5 chip, target immobilised via amine coupling, 25 °C, 30 µL/min, 20 mM phosphate, 150 mM NaCl, 0.005% Tween 20, pH 7.4; global fit, 1:1 binding; mean of three measurements; conditions: both partners purified
T4 construct: TorC of E. coli lacking the N-terminal 20 amino acid membrane anchor, made without heme insertion; also called soluble apo-TorC; source: E. coli, 'soluble torC' gene expressed without the ccm gene cluster (pEC86) and without hemin, purified
T4 sequence (looked up): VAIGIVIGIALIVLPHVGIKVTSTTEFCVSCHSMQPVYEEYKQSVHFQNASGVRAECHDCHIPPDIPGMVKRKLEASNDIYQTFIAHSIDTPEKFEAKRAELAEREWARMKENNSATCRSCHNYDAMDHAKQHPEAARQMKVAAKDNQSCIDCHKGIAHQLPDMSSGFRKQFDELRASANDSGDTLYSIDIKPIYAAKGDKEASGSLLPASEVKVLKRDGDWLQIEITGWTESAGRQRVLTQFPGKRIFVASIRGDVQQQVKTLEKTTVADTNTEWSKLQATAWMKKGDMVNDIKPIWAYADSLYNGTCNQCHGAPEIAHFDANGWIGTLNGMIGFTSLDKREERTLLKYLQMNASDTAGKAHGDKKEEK

[10] = target: B3; assay: as above; conditions: both partners purified
[11] = target: T3, TorA (TMAO reductase); assay: SEC; TorA co-purified with TorD (plasmid pTorAD); TorAD2 complex of 136.5 kDa on analytical gel filtration; conditions: partners not purified

TorC TorCN (from UniProt P33226)
Kd [1]: 45 nM

Cc1cc(O)c2ccccc2c1O [menadiol]
UV-visible spectroscopy, reduction of TorC [2]: menadiol can reduce soluble TorC, which can be re-oxidized by TorA

B1: TorA with soluble TorC (physiological electron transfer assay) (Escherichia coli K-12) (protein)
chain: AQAATDAVISKEGILTGSHWGAIRATVKDGRFVAAKPFELDKYPSKMIAGLPDHVHNAARIRYPMVRVDWLRKRHLSDTSQRGDNRFVRVSWDEALDMFYEELERVQKTHGPSALLTASGWQSTGMFHNASGMLAKAIALHGNSVGTGGDYSTGAAQVILPRVVGSMEVYEQQTSWPLVLQNSKTIVLWGSDLLKNQQANWWCPDHDVYEYYAQLKAKVAAGEIEVISIDPVVTSTHEYLGREHVKHIAVNPQTDVPLQLALAHTLYSENLYDKNFLANYCVGFEQFLPYLLGEKDGQPKDAAWAEKLTGIDAETIRGLARQMAANRTQIIAGWCVQRMQHGEQWAWMIVVLAAMLGQIGLPGGGFGFGWHYNGAGTPGRKGVILSGFSGSTSIPPVHDNSDYKGYSSTIPIARFIDAILEPGKVINWNGKSVKLPPLKMCIFAGTNPFHRHQQINRIIEGLRKLETVIAIDNQWTSTCRFADIVLPATTQFERNDLDQYGNHSNRGIIAMKQVVPPQFEARNDFDIFRELCRRFNREEAFTEGLDEMGWLKRIWQEGVQQGKGRGVHLPAFDDFWNNKEYVEFDHPQMFVRHQAFREDPDLEPLGTPSGLIEIYSKTIADMNYDDCQGHPMWFEKIERSHGGPGSQKYPLHLQSVHPDFRLHSQLCESETLRQQYTVAGKEPVFINPQDASARGIRNGDVVRVFNARGQVLAGAVVSDRYAPGVARIHEGAWYDPDKGGEPGALCKYGNPNVLTIDIGTSQLAQATSAHTTLVEIEKYNGTVEQVTAFNGPVEMVAQCEYVPASQVKS
notes: recombinant TorA plus soluble TorC (first 20 residues, membrane anchor, deleted); with Cytochrome c-type protein TorC
Km [3]: 9.8 ± 2.53 µM
kcat [3]: 0.145 ± 0.05 s⁻¹

B2: TorA (TMAO reductase) (Escherichia coli K-12) (protein)
chain: AQAATDAVISKEGILTGSHWGAIRATVKDGRFVAAKPFELDKYPSKMIAGLPDHVHNAARIRYPMVRVDWLRKRHLSDTSQRGDNRFVRVSWDEALDMFYEELERVQKTHGPSALLTASGWQSTGMFHNASGMLAKAIALHGNSVGTGGDYSTGAAQVILPRVVGSMEVYEQQTSWPLVLQNSKTIVLWGSDLLKNQQANWWCPDHDVYEYYAQLKAKVAAGEIEVISIDPVVTSTHEYLGREHVKHIAVNPQTDVPLQLALAHTLYSENLYDKNFLANYCVGFEQFLPYLLGEKDGQPKDAAWAEKLTGIDAETIRGLARQMAANRTQIIAGWCVQRMQHGEQWAWMIVVLAAMLGQIGLPGGGFGFGWHYNGAGTPGRKGVILSGFSGSTSIPPVHDNSDYKGYSSTIPIARFIDAILEPGKVINWNGKSVKLPPLKMCIFAGTNPFHRHQQINRIIEGLRKLETVIAIDNQWTSTCRFADIVLPATTQFERNDLDQYGNHSNRGIIAMKQVVPPQFEARNDFDIFRELCRRFNREEAFTEGLDEMGWLKRIWQEGVQQGKGRGVHLPAFDDFWNNKEYVEFDHPQMFVRHQAFREDPDLEPLGTPSGLIEIYSKTIADMNYDDCQGHPMWFEKIERSHGGPGSQKYPLHLQSVHPDFRLHSQLCESETLRQQYTVAGKEPVFINPQDASARGIRNGDVVRVFNARGQVLAGAVVSDRYAPGVARIHEGAWYDPDKGGEPGALCKYGNPNVLTIDIGTSQLAQATSAHTTLVEIEKYNGTVEQVTAFNGPVEMVAQCEYVPASQVKS
notes: recombinant from plasmid pTorAD (torAD in pJF119EH), expressed in E. coli; bis-MGD enzyme; monomer; also purified as TorAD2 complex; first 48 and last 5-10 residues not seen in crystal
Km [4]: 22.06 ± 0.75 µM
kcat [4]: 228 ± 46.3 s⁻¹

B3
Kd [5]: 1070 nM
Kd [6]: 309 nM
Kd [7]: 266 nM
kcat of TMAO reduction by TorA with menadiol and soluble TorC as electron donors (TMA quantified by GC-MS) [8]: 0.145 s⁻¹

B4: TorSN (periplasmic detection domain of TorS) (domain or fragment, E. coli, UniProt P39453 30-332, looked up)
chain: NLRFISQVEKDNTQALIPTMNMARQLSEASAWELFAAQNLTSADNEKMWQAQGRMLTAQSLKINALLQALREQGFDTTAIEQQEQEISRSLRQQGELVGQRLQLRQQQQQLSQQIVAAADEIARLAQGQANNATTSAGATQAGIYDLIEQDQRQAAESALDRLIDIDLEYVNQMNELRLSALRVQQMVMNLGLEQIQKNAPTLEKQLNNAVKILQRRQIRIEDPGVRAQVATTLTTVSQYSDLLALYQQDSEISNHLQTLAQNNIAQFAQFSSEVSQLVDTIELRNQHGLAHLEKASARGQYS
notes: TorS, sensor histidine kinase of E. coli, periplasmic detection domain; also called periplasmic TorS; source: from plasmid pET-Sp (pET21), purified following published procedures [7]
Kd [9]: 943 nM
Kd [10]: 1030 nM

B5: TorD (natural protein, E. coli, UniProt P36662 1-199, looked up)
chain: MTTLTAQQIACVYAWLAQLFSRELDDEQLTQIASAQMAEWFSLLKSEPPLTAAVNELENRIATLTVRDDARLELAADFCGLFLMTDKQAALPYASAYKQDEQEIKRLLVEAGMETSGNFNEPADHLAIYLELLSHLHFSLGEGTVPARRIDSLRQKTLTALWQWLPEFVARCRQYDSFGFYAALSQLLLVLVECDHQNR
notes: source: co-expressed from plasmid pTorAD and co-purified with TorA
stoichiometry N [11]: 2 TorD per TorA
